{
  "source": "paper PMC8625556",
  "tested_on": "GST:p33ΔTMD (Citrus tristeza virus (isolate T36))",
  "assay": "EMSA",
  "data": [
    {"substance": "LMT1 full length (1-780)", "values": [
      {"measurement": "Kd", "value": 122, "unit": "nM"}
    ]}
  ]
}
